Our source for the protein production values is a protein production outcome set (Wang et al. 2014).

This data set can be described thus: label from the status in PepcDB records.
Turning to “MIGDLDISGVFLPTLLVLMGITYGLYLLVHGVLTRLHFYRLVWHRALFNVGLYALLLGAVDSLSRYLMT”, the protein production entry is reported as “failed”.

On to “MTPNRRPRPSGAEVRRKIRGPDGLALLPSGRVSWLPDDFVHPVLVPLPGGDHHLRPIRETDTPLDYPAVMGSRERLWTVYGPAWGWPAATMTYEADRADLLRHEKEIAAHQSFNYALFDTAETALLGCVYIDPPERAGADGDISWWVVDELVDSTVERALDALVPQWIAADWPFERPRFIGREISWSDYLALPGIPTVP”, for which the protein production result is “failed”. With “MKDNTPASSPERWIIYGANGYTGELIAREAVKRGHHPILAGRSLEKVQSLAAELGLQSLAFSLEDKSSAVQHISGSSLVLNCAGPFSSTAKPMMKACLEAGAHYLDITGEISVFEFAQTLQSQAKEASVVLCSGVGFDVIPTDCIAATLKAALPDATHLSLGFDSRSGFSPGTAKTSVEGLAQGGKVRLNGKITTVPLAYKVHNIDFGDGEKLAMTIPWGDVSTAYYTTGIENIDVFIPGSPNMIKNAKRANWVRPLLGITWVQNLIKSRIERTVKGPNEEQRNQLPTYVWGKASNKLGQSKTARVQTANGYSLTVTGSLAIVEHLLHTKPEAGVYTPSKLMGSNFVSQLPGSSGITIEE”, the protein production result is reported as “failed”.

Regarding “MAEWSKAPDSSSGLRKRAWIRPWQREHMTIESVDHETRSMTQRFTVPEFFEGYKMITSTTKVNDSAIGLYSLVDISVEYDKTGPEIKDLDQVQFLVDYINELVLRTGGQLLRRLK”, the protein production result is reported as “failed”. Consider “MSLFIYEVLIRLFMTFILSLLLTPLVKLLAFRIGAYDAPGERRINTKNMPTAGGLAIYIAFASSCLLIFRSIIPQDYIWPIILAGGMVVLTGLIDDIKEITPMKKTIGILLAALVIYFVAGIRIDFVTLPVVGMIDLRWFSLPLTLLWILAITNAVNLIDGLDGLASGVSIIGLTTIGITGYFFLHAKTVYIPIVIFILVASIAGFFPYNFYPAKIFLGDTGALFLGFMIAVMSLQGLKNATFITVITPMVILGVPITDTVYAIIRRLLNKKPISSADKMHLHHRLLSLGFTHKGAVMTIYALALVFSFVSLLFSYSSTVASILLIVFCLIGLELFIELIGLVGEGHQPLMYLLRILGNREYRQEQMKKRLGKHSKRK”, for which the protein production entry is listed as “failed”.

Regarding “MDRWNMHKPMLCDSLPTASRTAAAILNLAQREDVTAEALAQLIQTDPALTGRILRFANAPAQGTRRPVASVIDAIDLVGLPAVRQFALSLSLIDAHREGRCEAFDYAAYWQKSLARAVALQSITAQASTVAPKEAFTLGLLADVGRLALATAWPEEYSECLRKADGEALIALERERFATDHDELTRMLLTDWGFPQVFIDALQLSQQDEIRDEGRTGRFARQLALAQHIADHRLAEEPRRAALSPLLRAEARRCGLGDEDLARLLADPPADWLDWTRTIGLEHHHHHH”, the protein production result was “not failed”. For “MPEEALIVVDMQRDFMPGGALPVPEGDKIIPKVNEYIRKFKEKGALIVATRDWHPENHISFRERGGPWPRHCVQNTPGAEFVVDLPEDAVIISKATEPDKEAYSGFEGTDLAKILRGNGVKRVYICGVATEYCVRATALDALKHGFEVYLLRDAVKGIKPEDEERALEEMKSRGIKIVQF”, the protein production entry is given as “not failed”.

In the case of “MQCNVCEFGCEIDEYSRGRCRTYVCTGDTIIQDPDMGYLGAYPVSIETIPLLHYYPSGKFLQVFGTGCNFQCSGCVARLLASGKSLSSTTLTPSQVVEKALQQDCLGVVSTLNEPAANYYLFRDLAVQAKEKGLLVGCSTNCYFTEETLNKLGQLVDFMNVGIKGYSDRSYISCGVPSSAPVFRNISLLFDMGVHVETSVVYSRGNEADVIKVAEAVSDISPTIPVQVMRFIPFGDAPIELEPSVGEAESLCADLRKYVDYVYLFNSPGTELLNTYCPECGSLLAEREFYGPMGSRPVRPWITYSCDCGKTVPVKGTTAVERFNEEGFMGGYRISRAFGMVHGVLTCLGILDDSRLIDVWREISDSGTLMKVHHMIQQPYAYLDFVRLIAERANMPEKGEELISFIHTRLELVKSLAAENSGHKVYYCMGSPLFALNAGRMENNLVAFSGGLSINKQLQKEGKPGINVSPSFINENNPDTIFISGFLSRPLDEFYTLCRQYGIETDAVKQQRVYEVPPSWDFGNPRWILGLMYIADKLYPGNSGIDLEKEADEFYRQFYGMPYLEHHHHHH”, the protein production result is reported as “not failed”. Then “MSGMSAAARWTLIASVIAGVSYVASWGLTLPPGVETAWKGAGVGLLAIHAALRARSLDGWLLAAVMALGTGGDVLLETHGLTVGAISFLLGHVVASGLYLRHRNAVSLAPLALIPVVVAVSFLLPTDRAGAPGIALYSLFLAVMAAMALMSRFPFKTVGLGALMFVVSDLLIFGRLGPLPDNLATGLGVWGLYYFGQLLICLGVAGALAHPSTDLPGEGRGPDSA”, with “failed”; and “MTQHQTLPQTTEGAYHYQVIRRAIELIDQTDQPISLDEIAANMGMSPAHFQRVFSRWVGVLEHHHHHH”, with “not failed”; and “METRAHHVLIGLFTVIVVAGALLFGLWLAKSSVDSAFQDYQIVFNEAVSGLSKGSSVQYSGIKVGDVVNLRLDPKDPRRVLAQIRLGSETPIKEDTQAKLALTGITGTSIIQLSGGTPQSPTLKGKDGELPTIIASPSPIARLLNNSNDLMTGVNLLLHNANRMFSPDNVARVSSTLDNLQKTSASIAEQRDDLRQLMQQLGSISKQTGAMLEQTTALMRNANGLLNDQGKQMFGSAEHAMRSLEQSSATLNKLLSDNQDSLNNGMQGLNGLAPAVRELRETLSSLRAITRRLEANPGGYLLGNEKNKEFTPLEHHHHHH”, with “not failed”. The result for “MKGHIRERSPGHWAIVLDVGEVDPKTGKKKRKWHSFTGTKREAQKECSRLITVLDQGLYVEPTKQTVAEFLNEWLAFVKPSVAPKTHERYTEICRKGLSPLIGNVILSKLKTDRIDAAFTTALTAPRVDHRTKKDQREPLPPLAPRTVHHYRRVLVKALGQAVTWERLSRNPATATTPPKVERQKMLAYDVGQTATLLETLRPTRMFVPVLLAVTCGLRRGEILALRWRHLELGDNRRQMSIEESAEQTADGVRYKEPKSGRARTVALSASTVAELKAHRARQAEEQLRLGIRPDADSFVVAQVDGQPLQPRSLTHEWVRVLGKTSLPRIRFHDLRHTHATQMLSAGVHPKIASERLGHSNIGITLDLYSHVMPGMQADAAEQVDVALQAAISSERKGK” reads “failed”. For the sequence “MNFAGQPLQDGSLPRIGTGKDALSLLDLSDFVARHWRFIGLVTVFVMALALAYLAAAPSRYTAQTDMIIDTKRVTWTQSEFATENRMVEDASVESEIETTKSEKVALQVIRKLRLTEDPEFIGSGTGLRNRLYQLLDLDAPISPQLTPSELEARALSRVKDNLKVMRLGRSYIEQISFTSLVPEKAAVIANAFADAYIEDQIQAKFEATRRASEWLQQRIGELRQQASDAYRAVQDFKSSNSIIVSGDGKLASDLELDQLGISLAKARAETSQARAKLERITRVLELRQEKGSNEIPDPVVTDALSNPVITRLRQQYLDNQSKEAEWSSRYGAEHQAARNLRSEMANVRQAIWDEVSRIAESYRSEVQIAKTQEDSIDKRMIEVFQSSTGTRQAQVHLRELETAATTYRGIYETFLTRFTQSVQQQSFPSTEARVVTLASPPSVRSSPKTNLTLALAAISGLTLGILGAFARDRMSRRIHTRAQLETILGTSCLAIIPSFANPALTSQTSTSSSRLSRAVKQLLRKRDHVPGQPRERSQANSAAFEKINDVAPFSATAEALRHIKVAIDLSPGGGRVIGIVSARPGEGKTTICASFAAFLARSGARTLLIDGDLRNPSLSRTLGYKNKRGLLELVADQLQLSDLVVTDPVYKFDFLPSATEMKPINSADVLTSPSVKRMLKSAAGNYDYIIVDLPPILPVVDVKAAAHLFDAFVLVVEWGATMSDEVRSAVGVSRSLSERLLGAVLNKTDEDVMRRLEGYSYRSHHYYYYGAPKHENEQTKN”, the protein production result is listed as “failed”. For “MKINLLQYIAGFLGFIALFYGIFSLIREYHFLEIKSLEVFVLIFFGFFAITYAFTDRIMIEKPFALTFAVILFYLSLITPLPLTNKILLITGGIIETQLASRKGVKGTVYIILGILTLIYFVYAHFINLSSILSLIGIGLSSLIIVLGNRDRKVKGISYLTYPVGIPLVVYGINGFFPLSINPIFIIVGLAIVLLNLLPSKGIPSSDYDLKLDQKLCNDIQRSECKDVIQIYKKYMVYIPQHCLDKVVLCTINQNDMQNFNLVINNSLARSVAERYVDKMSPEMLYSLALLSSRKKELLELACKKGYKKACEQTKPILDMKNWDPKVWVGKEIYNYNIVDIIGVGGTSYILKGEKDGNFYALKIPLINYLNNVMDLVGESSKLIELSNKSPYIVRLYAIYADQLDVKEILGGNPEIYYNKPPMLVIELMKGGSINDVINVKELVKSEYWKKIVFITTARIAEALETIHSEGYVHCDVKPQNVLFNEKLPPNARLAYDNLKNGKIIVKLADLGSAVKAGEKPFSYTPAYVSFDLVKSTAFGGVSPMADIYALGATVYKLLTGVTLNTNVMIEAMDKFEANKDIRYLDNSLYSTRNLDLLRKYVDKNTYLFISKMVDPDPNKRPTSKEIKEFFYFRV”, the protein production result was “failed”. Then “MSTYYNDHLAAAEKDISSSNFCNLVDASVMLYDEEHRDLLPKKVNSRCQAKTKKQEKESDKRFFDLFPKKRRTSVVTVRNPEQNQQNLHRVSTSSSLLDLNTIPGDSSDPRNELQGLLSSSSSSFLGDYERKTPQNASSSSTLLAEYNTEMANPPNPNSETSLKRKHSDSEPKKAKTPYSWKGREAPEWLVKMMGTMQGSEGPRLIYEKTLTETDVKPVQSRLLMPFNTLIRNDFLTPVELRILLELEDDTDGVGATLVDPWEVKWGVILKKREMKKYSGKGSLNYAIICGWNDIVEANVLEKDDDISIWSFRRGRNGILSFALVLPPPPDMA”, with “failed”. Take “MNHYFRAIGSMLILVYSTFFAIFFIDKVFVNIMYFQGMFYTQIFGIPVLLFLNLMVILLCIIVGSVLAYKINQQNHWLKDQIERSIEGQTVGINDQNIELYNETIELYQTLVPLNQEVHKLRMKTQNLTNESYNINDVKVKKIIEDERQRLARELHDSVSQQLFAASMMLSAIKETELKAPLDQQIPVLEKMIQDSQLEMRALLLHLRPIGLKDKSLGEGIKDLVVDLQKKVPMKVVHDIEEFKVPKGIEDHLFRITQEAISNTLRHSKGTKVTIELFNREEYLLLRIQDNGKGFNVDDKVEQSYGLKNMRERALEIGATFHIVSLPDAGTRIEVKAPLNKEDSNAD”: the protein production result is “failed”. Then “MRFPELEELKNRRTLKWTRFPEDVLPLWVAESDFGTCPQLKEAMADAVEREVFGYPPDATGLNDALTGFYERRYGFGPNPESVFAIPDVVRGLKLAIEHFTKPGSAIIVPLPAYPPFIELPKVTGRQAIYIDAHEYDLKEIEKAFADGAGSLLFCNPHNPLGTVFSEEYIRELTDIAAKYDARIIVDEIHAPLVYEGTHVVAAGVSENAANTCITITATSKAWNTAGLKCAQIFFSNEADVKAWKNLSDITRDGVSILGLIAAETVYNEGEEFLDESIQILKDNRDFAAAELEKLGVKVYAPDSTYLMWLDFAGTKIEEAPSKILREEGKVMLNDGAAFGGFTTCARLNFACSRETLEEGLRRIASVL”, with “failed”.

For “SKKVIGKKRAHAEDDELDPMDPSSYSDAPRGGWVVGLKGVQPRAADTTASGPLFQQRPYPSPGAVLRRNAEVASSQKKKPNSQFTEITKRGDGSDGLGDAD”, the protein production result is “failed”.

Take “SERNDIINFKALEKELQAALTADEKYKRENAAKLRAVEQRVASYEEFRGIVLASHLKPLERKDKMGGKRTVPWNCHTIQGRTFQDVATEISPEKAPLQPETSADFYRDWRRHLPSGPERYQALLQLGGPRLGCLFQTDVGFGLLGELLVALADHVGPADRAAVLGILCSLASTGRFTLNLSLLSRAERESCKGLFQKLQAMGNPRSVKEGLSWEEQGLEEQSGGLQEEERLLQELLELYQVD”: the protein production result is recorded as “not failed”.
